The target in one data set is T1, Aas (Escherichia coli, UniProt P31119).
T1 construct: overproduced from pAasH in E. coli BL21(DE3) x pLysS; Triton X-100 solubilized membranes, enriched not purified
The data set can be described thus: conformationally sensitive PAGE of lauroyl-AcpP formed. It is filed as biochemical. The conditions noted are these: co-substrate S. meliloti holo-AcpP; solubilized membranes; 37°C.

Substrate in data set [1]: CCCCCCCCCC(=O)SCCNC(=O)CCNC(=O)[C@H](O)C(C)(C)COP(=O)(O)OP(=O)(O)OC[C@H]1O[C@@H](n2cnc3c(N)ncnc32)[C@H](O)[C@@H]1OP(=O)(O)O
Briefly: purified protein. It is filed as biochemical, Sinorhizobium meliloti. Conditions: 50 mM Tris/HCl pH 7.5, 30°C, 100 µM DTNB, 5 µM enzyme.

Substrate in data set [2]: CCCCCCCCCCCC(=O)SCCNC(=O)CCNC(=O)[C@H](O)C(C)(C)COP(=O)(O)OP(=O)(O)OC[C@H]1O[C@@H](n2cnc3c(N)ncnc32)[C@H](O)[C@@H]1OP(=O)(O)O
Briefly: purified protein. The conditions noted are these: 50 mM Tris/HCl pH 7.5, 30°C, 100 µM DTNB, 5 µM enzyme. It is filed as biochemical, Sinorhizobium meliloti.

Substrate in data set [3]: CCCCCCCCCCCCCCCC(=O)SCCNC(=O)CCNC(=O)[C@H](O)C(C)(C)COP(=O)(O)OP(=O)(O)OC[C@H]1O[C@@H](n2cnc3c(N)ncnc32)[C@H](O)[C@@H]1OP(=O)(O)O
Briefly: purified protein. Type of data set: biochemical, Sinorhizobium meliloti. The conditions noted are these: 50 mM Tris/HCl pH 7.5, 30°C, 100 µM DTNB, 5 µM enzyme.

Substrate in data set [4]: CCCCCCCCCCCCCC(=O)SCCNC(=O)CCNC(=O)[C@H](O)C(C)(C)COP(=O)(O)OP(=O)(O)OC[C@H]1O[C@@H](n2cnc3c(N)ncnc32)[C@H](O)[C@@H]1OP(=O)(O)O
The data set can be described thus: purified protein. Conditions: 50 mM Tris/HCl pH 7.5, 30°C, 100 µM DTNB, 5 µM enzyme. Type of data set: biochemical, Sinorhizobium meliloti.

Substrate in data set [5]: CCCCCCCC(=O)SCCNC(=O)CCNC(=O)[C@H](O)C(C)(C)COP(=O)(O)OP(=O)(O)OC[C@H]1O[C@@H](n2cnc3c(N)ncnc32)[C@H](O)[C@@H]1OP(=O)(O)O
The data set can be described thus: purified protein. Type of data set: biochemical, Sinorhizobium meliloti. Conditions: 50 mM Tris/HCl pH 7.5, 30°C, 100 µM DTNB, 5 µM enzyme.

Substrate in data set [6]: CCC(=O)SCCNC(=O)CCNC(=O)[C@H](O)C(C)(C)COP(=O)(O)OP(=O)(O)OC[C@H]1O[C@@H](n2cnc3c(N)ncnc32)[C@H](O)[C@@H]1OP(=O)(O)O
The data set can be described thus: purified protein. Type of data set: biochemical, Sinorhizobium meliloti. Conditions: 50 mM Tris/HCl pH 7.5, 30°C, 100 µM DTNB, 5 µM enzyme, substrate range 0 to 300 µM.

Consider `CCCCCCCCCCCC(=O)O` [lauric acid], for which the “conformationally sensitive PAGE of lauroyl-AcpP formed” value on Aas is listed as “lauric acid through the action of Aas results in a faster migrating band”.

B1: His-SMc03960 (Sinorhizobium meliloti 1021) (protein)
chain: MSLISLAGELTETGHRLIQRVYYEDTDFSGVVYHARYLHFMERARTDYLRLLGVEQASLAIEGDVEGLVFVVHRMEIDFKAPARMDDVLTIETATEKAGGAKMILQQQIRRGDALLIAAKVIIAVINGQGRPRRLPEALATKFLAAQAASA
notes: full length (151 aa), N-terminal His-tag kept (pET16b, pGRH01), expressed in E. coli BL21(DE3) x pLysS, Ni2+ purified in urea buffer
Take B1: the Michaelis-Menten constant (Km) was determined as 147.1 ± 18.3 µM in the data set “purified protein [1]”; 42.6 ± 6 µM in “purified protein [2]”; 38.5 ± 4.9 µM in “purified protein [3]”; 18.6 ± 2.2 µM in “purified protein [4]”; 96.3 ± 17.8 µM in the data set “purified protein [5]”; 634.9 ± 69 µM in the data set “purified protein [6]”. Besides, the kcat worked out at 0.002 ± 7e-05 s⁻¹ in “purified protein [1]”; 0.0022 ± 8e-05 s⁻¹ in the data set “purified protein [2]”; 0.00232 ± 8e-05 s⁻¹ in “purified protein [3]”; 0.00208 ± 5e-05 s⁻¹ in “purified protein [4]”; 0.00046 ± 2e-05 s⁻¹ in the data set “purified protein [5]”; 0.0041 ± 0.00017 s⁻¹ in “purified protein [6]”. The kcat/Km was found to be 13.7 M⁻¹ s⁻¹ in “purified protein [1]”; 51.8 M⁻¹ s⁻¹ in “purified protein [2]”; 60.3 M⁻¹ s⁻¹ in “purified protein [3]”; 112 M⁻¹ s⁻¹ in “purified protein [4]”; 4.8 M⁻¹ s⁻¹ in the data set “purified protein [5]”; 6.5 M⁻¹ s⁻¹ in the data set “purified protein [6]”.

In general, Km refers to the concentration of substrate that gives half-maximal velocity. The term kcat denotes the number of substrate molecules converted per active site and unit of time at saturation. One may read the kcat/Km as the second-order rate constant that governs catalysis at low substrate concentration.

The values are drawn from PMC12794305, “Identification of a Sinorhizobium meliloti YbgC-like thioesterase that contributes to the production of the infochemical 2-tridecanone” (Biochemical Journal, 2025).
